Results reported in patent US9320760B2, “Compositions and methods of use of compounds to increase cancer patient survival time” (BioNumerik Pharmaceuticals, Inc., priority 2008, dated 2016).

Substrate: O=S(=O)(O)CCSSCCS(=O)(=O)O
Assay: purified protein, by the assay type
Settings: pH 7.0; 25.0 °C

B1: Thioredoxin Reductase + Thioredoxin (Bos taurus) (protein)
chain: MVKQIESKYAFQEALNSAGEKLVVVDFSATWCGPCKMIKPFFHSLSEKYSNVVFLEVDVDDCQDVAAECEVKCMPTFQFFKKGQKVGEFSGANKEKLEATINELI
Km: 72 µM
